What was measured:
003m-P215S-1×GCN4t-1,2N = assay: flow cytometry, Expi293F cells, Lipofectamine 2000-mRNA
[1] = molecular target: 003m-P215S-1×Fibritin (RSV); assay: as above
003m-P215S-1×GCN4t-1N = assay: as above
003m-P215S-1×GCN4t-3N = assay: as above
003m-P215S-1×GCN4t-2,3N = assay: as above
[2] = molecular target: 003m-P215S-1×Fibritin-1N (RSV); assay: as above
003m-P215S-1×GCN4t-1,3N = assay: as above
[3] = molecular target: 003m-P215S-1×GCN4t-1,2,3N; assay: as above
003m-P215S-1×GCN4t (RSV) [4] = assay: as above
003m-P215S-1×GCN4t-2N = assay: as above
003m-P215S-1×GCN4t (RSV) [5] = assay: flow cytometry, Expi293F cells, Lipofectamine 2000-mRNA; row 003m-P215S-1×GCN4t
003m-P215S-1×GCN4t (RSV) [6] = assay: flow cytometry, Expi293F cells, Lipofectamine 2000-mRNA; row 003m-P215S-1×GCN4t-opti1
003m-P215S-1×GCN4t (RSV) [7] = assay: flow cytometry, Expi293F cells, Lipofectamine 2000-mRNA; row 003M-P215S-1×GCN4t (ORIG)
[8] = molecular target: 010m-Cys-P215S-1×GCN4t (RSV); assay: flow cytometry, Expi293F cells, Lipofectamine 2000-mRNA
013m-Cys-P215S-1×GCN4t = assay: as above
[9] = molecular target: 008m-Cys-P215S-1×GCN4t (RSV); assay: as above
012m-Cys-P215S-1×GCN4t = assay: as above
[10] = molecular target: 009m-Cys-P215S-1×GCN4t (RSV); assay: as above
[11] = molecular target: 007m-Cys-P215S-1×GCN4t (RSV); assay: as above
011m-Cys-P215S-1×GCN4t = assay: as above
003m-P215S-1×GCN4t (RSV) [12] = assay: as above; remark: listed apart in the source
[13] = molecular target: RSV B-003m-P215S-1×GCN4t (RSV B); assay: flow cytometry, Expi293F cells, Lipofectamine 2000-mRNA; mRNA RQ1
[14] = molecular target: RSV B-003m-P215S-1×GCN4t-ori_linker (RSV B); assay: as above
[15] = molecular target: RSV B-003m-P215S-1×GCN4t-C486D-C489D (RSV B); assay: as above
[16] = molecular target: RSV B-003m-P215S-1×GCN4t-C155S-C290S (RSV B); assay: as above
[17] = molecular target: RSV B-003m-P215S-1×GCN4t-F190S (RSV B); assay: as above
RSV B-003m-P215S (RSV B) [18] = assay: as above
[19] = molecular target: RSV B-003m-P215S-1×GCN4t-D92E (RSV B); assay: as above
[20] = molecular target: RSV B-003m-P215S-1×GCN4t-G46S (RSV B); assay: as above
[21] = molecular target: RSV B-003m-P215S-1×GCN4t-C102A-C362S (RSV B); assay: as above
003m-P215S-1×GCN4t (RSV) [22] = assay: flow cytometry, Expi293F cells, Lipofectamine 2000-mRNA; row 003m-P215S-1×GCN4t (ORIG)
[23] = molecular target: RSV B-003m-P215S-1×GCN4t-ori_linker (RSV B); assay: flow cytometry, Expi293F cells, Lipofectamine 2000-mRNA; mRNA RQ3
[24] = molecular target: RSV B-003m-P215S-1×GCN4t-C486D-C489D (RSV B); assay: as above
[25] = molecular target: RSV B-003m-P215S-1×GCN4t-C155S-C290S (RSV B); assay: as above
RSV B-003m-P215S (RSV B) [26] = assay: as above
[27] = molecular target: RSV B-003m-P215S-1×GCN4t-D92E (RSV B); assay: as above
[28] = molecular target: RSV B-003m-P215S-1×GCN4t-C102A-C362S (RSV B); assay: as above

Row | Substance | MFI (003m-P215S-1×GCN4t-1,2N) | MFI [1] | MFI (003m-P215S-1×GCN4t-1N) | MFI (003m-P215S-1×GCN4t-3N) | MFI (003m-P215S-1×GCN4t-2,3N) | MFI [2] | MFI (003m-P215S-1×GCN4t-1,3N) | MFI [3] | MFI (003m-P215S-1×GCN4t (RSV) [4]) | MFI (003m-P215S-1×GCN4t-2N) | MFI (003m-P215S-1×GCN4t (RSV) [5]) | MFI (003m-P215S-1×GCN4t (RSV) [6]) | MFI (003m-P215S-1×GCN4t (RSV) [7]) | MFI [8] | MFI (013m-Cys-P215S-1×GCN4t) | MFI [9] | MFI (012m-Cys-P215S-1×GCN4t) | MFI [10] | MFI [11] | MFI (011m-Cys-P215S-1×GCN4t) | further results
1 | D25-AF488 (antibody) | 100000 | 23000 | 59400 | 43400 | 70700 | 235000 | 122000 | 147000 | 10400 | 54000 | 54200 | 5680 | 3840 | 13400 | 14600 | 15700 | 15800 | 11500 | 12800 | 10300 | MFI (003m-P215S-1×GCN4t (RSV) [12]): 12200; MFI [13]: 8770; MFI [14]: 480; MFI [15]: 8170; MFI [16]: 94600; MFI [17]: 13500; MFI (RSV B-003m-P215S (RSV B) [18]): 364000; MFI [19]: 2250; MFI [20]: 4570; MFI [21]: 13900; MFI (003m-P215S-1×GCN4t (RSV) [22]): 8390; MFI [23]: 515; MFI [24]: 7160; MFI [25]: 93500; MFI (RSV B-003m-P215S (RSV B) [26]): 265000; MFI [27]: 2110; MFI [28]: 16000
2 | AM14-AF488 (antibody) | 58400 | 22300 | 37400 | 25100 | 39100 | 242000 | 71000 | 89600 | 4870 | 28800 | 30100 | 3380 | 2560 | 8650 | 7930 | 9780 | 9390 | 6450 | 7680 | 7710 | MFI (003m-P215S-1×GCN4t (RSV) [12]): 6700; MFI [13]: 7340; MFI [14]: 175; MFI [15]: 8130; MFI [16]: 48400; MFI [17]: 11100; MFI (RSV B-003m-P215S (RSV B) [18]): 496000; MFI [19]: 763; MFI [20]: 4140; MFI [21]: 3640; MFI (003m-P215S-1×GCN4t (RSV) [22]): 4150; MFI [23]: 182; MFI [24]: 7590; MFI [25]: 47600; MFI (RSV B-003m-P215S (RSV B) [26]): 353000; MFI [27]: 814; MFI [28]: 4430
